Test [1] addresses T1, SARS-CoV-2 S protein trimer (Delta B.1.617.2 India variant) [SPN-C52He] (SARS-CoV-2, UniProt P0DTC2 16-1213).
T1 construct: also called B.1.617.2 Delta India variant [SPN-C52he]
Description: Carterra SPR.

For test [2], the target named is T2, SARS-CoV-2 S protein trimer (Kappa B.1.617.1 India variant) [SPN-C52Hr] (SARS-CoV-2, UniProt P0DTC2 16-1213).
T2 construct: also called B.1.617.1 Kappa India variant
Description: Carterra SPR.

The target of test [3] is T3, SARS-CoV-2 S protein trimer (Alpha B.1.1.7 UK variant) [SPN-C52H6] (SARS-CoV-2, UniProt P0DTC2 16-1213).
T3 construct: also called B.1.1.7 Alpha UK variant
Description: Carterra SPR.

Test [4] has as its target T4, SARS-CoV-2 S protein trimer (Beta B.1.351 SA variant) [SPN-C52Hk] (SARS-CoV-2, UniProt P0DTC2 16-1213).
T4 construct: also called B.1.351 Beta SA variant
As to the kind of experiment: Carterra SPR.

Test [5] addresses SARS-CoV-2 S protein trimer (P.1 Gamma Brazil variant) [SPN-C52Hg] (SARS-CoV-2, UniProt P0DTC2 16-1213). As to the kind of experiment: Carterra SPR.
Test [6] deals with T5, SARS-CoV-2 S1 [S1N-C52H4] (SARS-CoV-2, UniProt P0DTC2 16-685).
T5 construct: domain: S1
As to the kind of experiment: Carterra SPR.

The target in test [7] is SARS-CoV-2 S protein trimer [SPN-C52H7] (SARS-CoV-2, UniProt P0DTC2 16-1213). As to the kind of experiment: Carterra SPR.
Test [8] concerns the target T6, Antibody 178-10_His CA_W152C_L452R_D614G (27081) (SARS-CoV-2, UniProt P0DTC2 14-685).
T6 construct: domain: S1; also called CA variant S1; California variant S1
Description: Carterra SPR.

In test [9] the target is T7, Antibody 178-08_His 501.V2 (27079) (SARS-CoV-2, UniProt P0DTC2 14-685).
T7 construct: domain: S1; also called TB178-8
As to the kind of experiment: Carterra SPR.

The target of test [10] is T8, Antibody 178-09_His B.1.1.7 (27080) (SARS-CoV-2, UniProt P0DTC2 14-685).
T8 construct: domain: S1; also called TB178-9
Description: Carterra SPR.

Test [11] concerns the target T9, S1 RBD L452R E484Q (Acro) (SARS-CoV-2, UniProt P0DTC2 319-537).
T9 construct: domain: S1 RBD; also called SARS-COV-2 RBD India Var; L452R E484Q S1; India variant mutation L452R E484Q
As to the kind of experiment: Carterra SPR.

Test [12] addresses T6, Antibody 178-10_His …. As to the kind of experiment: Carterra SPR. The source holds these as a separate data set.
The target of test [13] is T7, Antibody 178-08_His 501.V2 (27079). Description: Carterra SPR. This is another data set of the same source.
Test [14] has as its target T8, Antibody 178-09_His B.1.1.7 (27080). Description: Carterra SPR. The source holds these as a separate data set.
For test [15], the target named is T9, S1 RBD L452R E484Q (Acro). Description: Carterra SPR. The source holds these as a separate data set.
The target in test [16] is T1, SARS-CoV-2 S protein trimer (Delta …). As to the kind of experiment: binding kinetics, Carterra SPR.
Test [17] deals with T2, SARS-CoV-2 S protein trimer (Kappa …). Description: binding kinetics, Carterra SPR.
For test [18], the target named is T3, SARS-CoV-2 S protein trimer (Alpha …). Description: binding kinetics, Carterra SPR.
In test [19] the target is T4, SARS-CoV-2 S protein trimer (Beta …). As to the kind of experiment: binding kinetics, Carterra SPR.
Test [20] has as its target SARS-CoV-2 S protein trimer [SPN-C52H9] (SARS-CoV-2, UniProt P0DTC2 16-1213). As to the kind of experiment: binding kinetics, Carterra SPR.

Where a chain is given by its changes, count along the chain named. Read-outs that look alike come from different tables or passages of the source. Bounds are passed on as bounds.

B1: 7-14 (VHH)
VHH: EVQLVESGGGLVQPGGSLRLSCAASGSTFSINAMGWFRQAPGKEREFVAGISRGGTTNYADSVKGRFTISADNSKNTAYLQMNSLKPEDTAVYYCAADGVPEYSDYASGPVWGQGTLVTVSS
For orientation: Kd means a measure of binding affinity in units of concentration. Higher therefore signals weaker binding. A word on the koff: it is the first-order rate constant of dissociation. A high value points to fast dissociation. By kon is commonly meant a measure of how fast the partners come together. Lower therefore signals slow association. On to B1, for which the Kd in test [1] was 0.0122 nM; in test [2], 0.012 nM; in [3] it was 0.0128 nM; in test [4], 0.0171 nM; in test [5], 0.0185 nM; in test [6], 12.4 nM. Further, the Kd in test [7] is not above 0.0142 nM; in [8], 43.1 nM; in test [9], 16.9 nM; in test [10], 19.2 nM; in test [11], 20.1 nM; in [12] it was 43.1 nM. For the same molecule, the dissociation constant (Kd) in test [13] was 16.9 nM; in test [14], 19.2 nM; in [15] it was 20.1 nM; in test [16], not above 0.00994 nM; in test [17], not above 0.0083 nM; in test [18], not above 0.00862 nM. Further, the Kd in test [19] is 0.00853 nM; in test [20], not above 0.0105 nM. Further, the koff in [1] was determined as 1e-05 s⁻¹; in test [2], 1e-05 s⁻¹; in [3], 1e-05 s⁻¹; in test [4], 1.6e-05 s⁻¹; in test [5], 1.62e-05 s⁻¹; in test [6], 0.000464 s⁻¹. The koff in test [7] is not above 1e-05 s⁻¹; in test [16] it was not above 1e-05 s⁻¹; in test [17], not above 1e-05 s⁻¹; in test [18], not above 1e-05 s⁻¹; in test [19], 1.05e-05 s⁻¹; in [20], not above 1e-05 s⁻¹. Besides, the kon in [1] amounted to 818000 M⁻¹ s⁻¹; in test [2] it was 835000 M⁻¹ s⁻¹; in [3], 782000 M⁻¹ s⁻¹; in test [4], 931000 M⁻¹ s⁻¹; in [5], 877000 M⁻¹ s⁻¹; in test [6] it was 37400 M⁻¹ s⁻¹. Besides, the kon in test [7] came out at 703000 M⁻¹ s⁻¹; in test [16] it was 1.01e+06 M⁻¹ s⁻¹; in test [17] it was 1.2e+06 M⁻¹ s⁻¹; in test [18] it was 1.16e+06 M⁻¹ s⁻¹; in test [19], 1.23e+06 M⁻¹ s⁻¹; in [20], 954000 M⁻¹ s⁻¹.

B2: 7-26 (VHH)
VHH: EVQLVESGGGLVQPGGSLRLSCAASGSTFSINAMGWFRQAPGKEREFVAGITSSGGYTNYADSVKGRFTISADNSKNTAYLQMNSLKPEDTAVYYCAADGVPEYSDYASGPVWGQGTLVTVSS
Take B2: the Kd was 34.8 nM in test [8]; 74.9 nM in [9]; 22.7 nM in test [10]; 34.8 nM in test [12]; 74.9 nM in test [13]; 22.7 nM in [14].

B3: 3-31 (VHH)
VHH: B2 VHH
notes: also called 3-31_ExpiCHO
In the case of B3, the Kd in test [6] came out at 4.12 nM; in test [8], 41 nM; in test [9] it was 96700 nM; in [10], 16.1 nM; in test [12] it was 41 nM; in test [13] it was 96700 nM. In addition, the Kd in test [14] stood at 16.1 nM.

B4: 7-37 (VHH)
VHH: B2 VHH with F29L, S53R, G56S, Y57V
B4: the Kd in test [1] was 0.0191 nM; in test [2], 0.0276 nM; in test [3] it was 0.0201 nM; in [4], 0.03 nM; in test [5] it was 0.0322 nM; in test [6] it was 20.8 nM. Besides, the Kd in [7] is 0.026 nM; in test [8], 45.1 nM; in [9] it was 123 nM; in test [10], 17.8 nM; in [11], 58.5 nM; in [12], 45.1 nM. Besides, the Kd in [13] is 123 nM; in test [14] it was 17.8 nM; in test [15], 58.5 nM; in [16], not above 0.0102 nM; in test [17], 0.0171 nM; in test [18] it was 0.0131 nM. In addition, the Kd in test [19] was 0.0224 nM; in test [20], not above 0.0118 nM. The koff in [1] came out at 1.62e-05 s⁻¹; in [2] it was 2.38e-05 s⁻¹; in test [3], 1.52e-05 s⁻¹; in test [4], 2.83e-05 s⁻¹; in test [5], 2.92e-05 s⁻¹; in [6], 0.000651 s⁻¹. In addition, the koff in [7] is 1.77e-05 s⁻¹; in test [16] it was not above 1e-05 s⁻¹; in test [17], 1.67e-05 s⁻¹; in test [18], 1.15e-05 s⁻¹; in [19], 2.3e-05 s⁻¹; in [20], not above 1e-05 s⁻¹. The kon in [1] stood at 844000 M⁻¹ s⁻¹; in test [2] it was 862000 M⁻¹ s⁻¹; in [3] it was 757000 M⁻¹ s⁻¹; in [4], 944000 M⁻¹ s⁻¹; in [5] it was 906000 M⁻¹ s⁻¹; in test [6], 31400 M⁻¹ s⁻¹. Moreover, the kon was 680000 M⁻¹ s⁻¹ in test [7]; 978000 M⁻¹ s⁻¹ in test [16]; 977000 M⁻¹ s⁻¹ in test [17]; 875000 M⁻¹ s⁻¹ in test [18]; 1.03e+06 M⁻¹ s⁻¹ in test [19]; 844000 M⁻¹ s⁻¹ in test [20].

B5: 3-28 (VHH, not shown: a dimerising Fc or GST)
VHH: EVQLVESGGGLVQPGGSLRLSCAASGFTFRRYDMGWFRQAPGKEREFVSAISGGLAYYADSVKGRFTISADNSKNTAYLQMNSLKPEDTAVYYCAVDLSGDAVYDWGQGTLVTVSS
Turning to B5, the binding result in [8] and in [11] was “no binding” each time. Further, the Kd stood at 22 nM in [9], 16.6 nM in [10], 22 nM in [13] and 16.6 nM in [14].

B6: 7-09 (VHH)
VHH: EVQLVESGGGLVQPGGSLRLSCAASGGTFSSIGMGWFRQAPGKEREFVAAISWDGGATAYADSVKGRFTISADNSKNTAYLQMNSLKPEDTAVYYCAKEDVGKPFDWGQGTLVTVSS
notes: also called 7-9
With B6, the Kd amounted to 38.7 nM in test [8]; 23.2 nM in test [10]; 177000 nM in test [11]; 38.7 nM in test [12]; 23.2 nM in test [14]; 177000 nM in test [15]. Further, the binding result in [9] is on record as “no binding”.

The values are drawn from US20230265217A1 (TWIST BIOSCIENCE, published 2023).
